This is an account of results in the supplement of paper PMC9112550, “Optimization of the antimicrobial peptide Bac7 by deep mutational scanning” (BMC Biology, 2022).
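Further: peptides expressed intracellularly from a pBAD plasmid library in pooled LB shake-flask culture, induced with 0.3% L-arabinose, DNA abundance read by NGS, three biological replicates, DESeq2 with apeglm shrinkage.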

The series has as its system Escherichia coli TOP10. Nature of the series: shrunken log2 fold change of peptide-encoding DNA abundance (4.5 h post-induction vs induction); higher = less antimicrobial activity (less host growth inhibition). Particulars: time post-induction: 4.5 h; library: site-saturation at positions 5, 18, 19, 20.
With RRIRQRPPRLPRPRPRPCGTPRP, the “shrunken log2 fold change” value was 0.0105.

Turning to RRIRCRPPRLPRPRPRPELYPRP, the “shrunken log2 fold change” value came out at 0.221.

For the sequence RRIRWRPPRLPRPRPRPWETPRP, the “shrunken log2 fold change” value was -0.01.

In the case of RRIRNRPPRLPRPRPRPSLYPRP, the “shrunken log2 fold change” value is -0.0524.

Turning to RRIRRRPPRLPRPRPRPNYFPRP, the “shrunken log2 fold change” value was -0.323.

For the sequence RRIRFRPPRLPRPRPRPENPPRP, the “shrunken log2 fold change” value was -0.0301.

As for RRIRIRPPRLPRPRPRPLGVPRP, the “shrunken log2 fold change” value is -0.0767.

RRIRQRPPRLPRPRPRPNTLPRP: the “shrunken log2 fold change” value turned out to be 0.013.

With RRIRNRPPRLPRPRPRPAGWPRP, the “shrunken log2 fold change” value turned out to be 0.558.

For RRIRTRPPRLPRPRPRPVMAPRP, the “shrunken log2 fold change” value is -0.0918.

As to RRIRARPPRLPRPRPRPMTEPRP, the “shrunken log2 fold change” value is 0.356.

Take RRIRMRPPRLPRPRPRPKWCPRP: the “shrunken log2 fold change” value is 0.0391.

In the case of RRIRQRPPRLPRPRPRPKIKPRP, the “shrunken log2 fold change” value was -0.273.

In the case of RRIRFRPPRLPRPRPRPWWMPRP, the “shrunken log2 fold change” value was -0.168.

In the case of RRIRGRPPRLPRPRPRPIIPPRP, the “shrunken log2 fold change” value is -0.212.

Take RRIRCRPPRLPRPRPRPIISPRP: the “shrunken log2 fold change” value was -0.346.

As to RRIRCRPPRLPRPRPRPVYRPRP, the “shrunken log2 fold change” value was -0.445.

As to RRIRVRPPRLPRPRPRPRHHPRP, the “shrunken log2 fold change” value is -0.0962.

RRIRIRPPRLPRPRPRPLWWPRP: the “shrunken log2 fold change” value worked out at 0.266.

Regarding RRIRTRPPRLPRPRPRPCNHPRP, the “shrunken log2 fold change” value was -0.214.

On to RRIRYRPPRLPRPRPRPKVDPRP, for which the “shrunken log2 fold change” value is -0.079.

Take RRIRRRPPRLPRPRPRPETPPRP: the “shrunken log2 fold change” value is 1.12.

For RRIRWRPPRLPRPRPRPDDWPRP, the “shrunken log2 fold change” value worked out at 0.288.

For the sequence RRIRWRPPRLPRPRPRPTDWPRP, the “shrunken log2 fold change” value was 0.581.

Take RRIRGRPPRLPRPRPRPLYSPRP: the “shrunken log2 fold change” value was 0.225.

In the case of RRIRNRPPRLPRPRPRPERAPRP, the “shrunken log2 fold change” value was determined as 0.362.

Consider RRIRNRPPRLPRPRPRPACSPRP, for which the “shrunken log2 fold change” value turned out to be 0.0895.

RRIRARPPRLPRPRPRPDKMPRP: the “shrunken log2 fold change” value came to 0.104.

Take RRIRARPPRLPRPRPRPNSEPRP: the “shrunken log2 fold change” value is 0.0883.

For the sequence RRIRPRPPRLPRPRPRPRHNPRP, the “shrunken log2 fold change” value was -0.0793.

Regarding RRIRARPPRLPRPRPRPIWHPRP, the “shrunken log2 fold change” value was 0.331.

For the sequence RRIRMRPPRLPRPRPRPWGWPRP, the “shrunken log2 fold change” value was 1.08.

With RRIRTRPPRLPRPRPRPDKEPRP, the “shrunken log2 fold change” value was -0.0196.

Turning to RRIRARPPRLPRPRPRPSPVPRP, the “shrunken log2 fold change” value came out at 0.355.

As for RRIRFRPPRLPRPRPRPIGSPRP, the “shrunken log2 fold change” value is -0.241.

For RRIRLRPPRLPRPRPRPLSPPRP, the “shrunken log2 fold change” value was determined as 0.0444.

On to RRIRKRPPRLPRPRPRPWCKPRP, for which the “shrunken log2 fold change” value was -0.188.

On to RRIRCRPPRLPRPRPRPIGNPRP, for which the “shrunken log2 fold change” value was -0.221.

As to RRIRARPPRLPRPRPRPHMTPRP, the “shrunken log2 fold change” value is -0.0862.

As to RRIRKRPPRLPRPRPRPMTEPRP, the “shrunken log2 fold change” value stood at 0.0103.

In the case of RRIRWRPPRLPRPRPRPEFYPRP, the “shrunken log2 fold change” value was -0.129.

For RRIRMRPPRLPRPRPRPAHIPRP, the “shrunken log2 fold change” value is -0.161.

For the sequence RRIRDRPPRLPRPRPRPREPPRP, the “shrunken log2 fold change” value stood at 0.112.

For RRIRWRPPRLPRPRPRPNILPRP, the “shrunken log2 fold change” value is -0.402.

With RRIRERPPRLPRPRPRPVTWPRP, the “shrunken log2 fold change” value was -0.165.

As to RRIRTRPPRLPRPRPRPYTWPRP, the “shrunken log2 fold change” value is -0.465.

RRIRYRPPRLPRPRPRPWLCPRP: the “shrunken log2 fold change” value was -0.0909.

Take RRIRKRPPRLPRPRPRPHESPRP: the “shrunken log2 fold change” value was 0.23.

For RRIRRRPPRLPRPRPRPSFPPRP, the “shrunken log2 fold change” value was determined as 0.0188.

With RRIRHRPPRLPRPRPRPDFCPRP, the “shrunken log2 fold change” value was -0.0801.
